From publication PMC9676983 come the findings set out here.

Among the targets are α-synuclein A30P (UniProt P37840); α-synuclein A53T (UniProt P37840); α-synuclein E46K (UniProt P37840).
Holding throughout (test): SEC
A general note: SEC sorts molecules by how far they enter the pores of the column.

The substance “α-synuclein A30P (from UniProt P37840 1-140) (natural protein)” returned a fraction of oligomers in the assay with α-synuclein A30P of 71.6%.
In the assay with α-synuclein A53T, “α-synuclein A53T (from UniProt P37840 1-140) (natural protein)” displayed a fraction of oligomers of 87.8%.
In the case of “α-synuclein E46K (from UniProt P37840 1-140) (natural protein)”, in the assay with α-synuclein E46K, the fraction of oligomers was 92.1%.
